Data reported in patent US20110064653A1 (IMMUNOMEDICS, published 2011).
Read-outs that look alike come from different tables or passages of the source.

How the values were obtained:
CEACAM5/CEACAM6 [1] = assay: cell-based or functional assay
[2] = target: CEACAM6 (NCA-90) on cells (human) (UniProt P40199); assay: cell-based or functional assay
[3] = target: T1, carcinoembryonic antigen (CEA) (human, UniProt P06731 35-685); assay: radioiodinated MAb (100 ng/ml) with increasing CEA; free versus bound antibody by HPLC sizing gel
T1 construct: also called CEACAM5; CD66e
T1 sequence (looked up): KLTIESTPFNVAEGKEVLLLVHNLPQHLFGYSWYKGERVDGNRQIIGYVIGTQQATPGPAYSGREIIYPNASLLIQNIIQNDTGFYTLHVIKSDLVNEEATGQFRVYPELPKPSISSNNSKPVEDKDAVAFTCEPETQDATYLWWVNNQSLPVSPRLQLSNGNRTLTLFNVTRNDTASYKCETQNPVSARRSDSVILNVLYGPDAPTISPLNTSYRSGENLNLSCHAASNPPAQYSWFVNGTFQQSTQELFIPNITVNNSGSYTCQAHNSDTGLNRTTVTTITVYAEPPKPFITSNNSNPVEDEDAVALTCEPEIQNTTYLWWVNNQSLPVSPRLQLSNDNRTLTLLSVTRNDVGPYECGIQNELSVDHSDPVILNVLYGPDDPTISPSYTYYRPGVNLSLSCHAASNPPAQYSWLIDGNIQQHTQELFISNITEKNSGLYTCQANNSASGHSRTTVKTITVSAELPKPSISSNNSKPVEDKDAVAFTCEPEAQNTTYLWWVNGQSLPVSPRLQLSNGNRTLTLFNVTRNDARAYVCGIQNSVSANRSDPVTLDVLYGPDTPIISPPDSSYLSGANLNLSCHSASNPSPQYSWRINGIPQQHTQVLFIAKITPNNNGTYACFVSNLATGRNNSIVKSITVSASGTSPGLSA

[4] = target: T1, carcinoembryonic antigen (CEA); assay: 125I-CEA radioimmunoassay
CEACAM5/CEACAM6 [5] = assay: cell-based or functional assay; remark: listed apart in the source
[6] = target: T1, carcinoembryonic antigen (CEA); assay: competitive binding assay on CEA; unlabeled competitor varied against HRP-labeled murine MN-15
NCA-95 on HeLa cells = target: T2, NCA-95 on HeLa cells (UniProt P31997 35-320, limits assumed); assay: indirect flow cytometry on HeLa-CGM6/1 transfectants
T2 construct: whole, on cells; also called HeLa-CGM6/1
T2 sequence (looked up): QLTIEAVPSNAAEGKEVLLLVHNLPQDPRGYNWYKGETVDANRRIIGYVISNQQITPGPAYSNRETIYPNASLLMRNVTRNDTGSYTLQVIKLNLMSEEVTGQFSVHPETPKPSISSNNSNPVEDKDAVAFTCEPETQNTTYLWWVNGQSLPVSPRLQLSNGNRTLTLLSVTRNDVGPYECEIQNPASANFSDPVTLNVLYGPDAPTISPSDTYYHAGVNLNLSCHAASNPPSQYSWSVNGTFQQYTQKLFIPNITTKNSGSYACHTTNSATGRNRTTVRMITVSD
Experimental: The reacitivty of antibodies was tested by flow cytometry with a Becton-Dickinson FACSCAN®. The biotinylated second antibody was directed against mouse IgG and was detected by a streptavidin/phycoerythrin conjugate. Tests were carried out with antibodies at 1/50 dilution of 1 mg/ml stocks.
The antibodies MN-3 and MN-15 were tested for recognition of HeLa cells transfected with cDNA coding for CEA (HeLa-CEA2), NCA-90 (HeLa-KNC6/S44) and NCA-95 (HeLa-CGM6/1). As a negative control, HeLa cells transfected with the plasmid pSV2-Neo (control HeLa cells, HeLa-NeoA) were used. In addition to the antibodies MN-3 and MN-15, three control antibodies were included: […]

MN-3 Fab′
adhesion-inhibition of MCF-7, HT-29, BT-20 and Moser cells to endothelial cells (CEACAM5/CEACAM6 [1]): 49 to 58%
reduction of cell invasion, BXPC3, collagen-based invasion assay [2]: 0%
reduction of cell invasion, CaPAN-1, collagen-based invasion assay [2]: 55%
reduction of cell invasion, LS174T, collagen-based invasion assay [2]: 3%
reduction of cell invasion, MCF-7, collagen-based invasion assay [2]: 47%
reduction of cell invasion, ZR75-30, collagen-based invasion assay [2]: 59%

NP-4 antibody
CEA concentration for 50% complexation of the antibody [3]: 1 to 2 µg/mL
percent of radioiodinated CEA bound [4]: < 50%

B1: MN-15 Fab′ (Fab, V domains shown)
VL: DIQLTQSPAIMSASPGEKVTMTCSASSRVSYIHWYQQKSGTSPKRWIYGTSTLASGVPARFSGSGSGTSYSLTISSMEAEDAATYYCQQWSYNPPTFGAGTKLELKR
VH: EVRLVESGGGLVQGPGSLRLSCAASGFALTDYYMSWVRQSPGKTLEWLGFIANKANGHTTDYSPSVKGRFTISRDNSQTILYLQMNTLRTEDSATYYCARDMGIRWNFDVWGQGTTVTVSS
adhesion-inhibition of MCF-7, HT-29, BT-20 and Moser cells to endothelial cells (CEACAM5/CEACAM6 [5]): 49 to 58%

B2: chimeric MN-15 antibody (antibody, V domains shown)
VH: EVRLVESGGGLVQGPGSLRLSCAASGFALTDYYMSWVRQSPGKTLEWLGFIANKANGHTTDYSPSVKGRFTISRDNSQTILYLQMNTLRTEDSATYYCARDMGIRWNFDVWGQGTTVTVSS
VL: DIQLTQSPAIMSASPGEKVTMTCSASSRVSYIHWYQQKSGTSPKRWIYGTSTLASGVPARFSGSGSGTSYSLTISSMEAEDAATYYCQQWSYNPPTFGAGTKLELKR
IC50 (read off the curve) [6]: ~5 nM

B3: murine MN-15 antibody (antibody, mouse IgG1, V domains shown)
VH: EVRLVESGGGLVQGPGSLRLSCAASGFALTDYYMSWVRQSPGKTLEWLGFIANKANGHTTDYSPSVKGRFTISRDNSQTILYLQMNTLRTEDSATYYCARDMGIRWNFDVWGQGTTVTVSS
VL: DIQLTQSPAIMSASPGEKVTMTCSASSRVSYIHWYQQKSGTSPKRWIYGTSTLASGVPARFSGSGSGTSYSLTISSMEAEDAATYYCQQWSYNPPTFGAGTKLELKR
notes: also called mMN-15; MN-15 IgG
IC50 (read off the curve) [6]: ~5 nM
binding result (NCA-95 on HeLa cells): binds
decrease of adhesion of CaPAN-1 cells to fibronectin (CEACAM5/CEACAM6 [5]): 47%
decrease of adhesion of MCF-7 cells to fibronectin (CEACAM5/CEACAM6 [5]): 29%
decrease of adhesion of MDA-468 cells to fibronectin (CEACAM5/CEACAM6 [5]): 51%

B4: humanized MN-15 antibody (antibody, V domains shown)
VH: QVQLVESGGGVVQPGRSLRLSCSSSGFALTDYYMSWVRQAPGKGLEWLGFIANKANGHTTDYSPSVKGRFTISRDNSKNTLFLQMDSLRPEDTGVYFCARDMGIRWNFDVWGQGTPVTVSS
VL: DIQLTQSPSSLSASVGDRVTMTCSASSRVSYIHWYQQKPGKAPKRWIYGTSTLASGVPARFSGSGSGTDFTFTISSLQPEDIATYYCQQWSYNPPTFGQGTKVEIKR
notes: Humanized variable regions (REI VK and KOL VH frameworks) cloned alongside human IgG1 constant region genes; also called hMN-15
IC50 (read off the curve) [6]: ~5 nM
